Experimental data published in PMC6122969.

molecular target: HLA-A*02:01 on T2 cells (human (endogenous in T2)); test: flow cytometry on cells

Binder	time for which complexes with HLA-A*02:01 lasted [h]
FLGPWPAAS [p14 peptide … from the LRPAP1 signal peptide]	> 4
LTLLGTLWGA [p34 peptide … from PCDHGA6]	> 4
SVLWLGALGL [p35 peptide … from C20orf141]	> 4
VIIKPLVWV [p55 peptide … from APCS]	> 4
